Patent US20170174791A1 (RAMOT AT TEL AVIV UNIVERSITY, published 2017)

Molecular target: bovine serum albumin (BSA) (bovine, UniProt P02769 25-607)
Assay: ELISA, BSA-coated plate, goat-anti-human HRP detection

Sequence of bovine serum albumin (BSA) (P02769 25-607 limits assumed): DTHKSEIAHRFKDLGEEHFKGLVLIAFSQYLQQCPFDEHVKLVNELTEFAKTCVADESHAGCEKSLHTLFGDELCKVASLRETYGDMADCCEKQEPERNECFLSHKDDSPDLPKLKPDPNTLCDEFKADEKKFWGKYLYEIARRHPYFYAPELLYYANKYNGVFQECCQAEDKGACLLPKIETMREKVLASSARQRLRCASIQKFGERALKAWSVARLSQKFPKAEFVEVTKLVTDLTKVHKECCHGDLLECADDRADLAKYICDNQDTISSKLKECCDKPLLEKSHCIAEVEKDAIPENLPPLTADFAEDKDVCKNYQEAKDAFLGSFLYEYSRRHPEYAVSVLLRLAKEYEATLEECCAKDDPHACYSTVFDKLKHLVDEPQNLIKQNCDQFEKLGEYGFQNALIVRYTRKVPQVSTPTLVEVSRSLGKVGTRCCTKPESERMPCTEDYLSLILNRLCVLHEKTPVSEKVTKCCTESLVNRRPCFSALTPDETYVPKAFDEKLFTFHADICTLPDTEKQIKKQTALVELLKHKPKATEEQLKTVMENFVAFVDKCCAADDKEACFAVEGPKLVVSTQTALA

B1: T427-αPE (B11 clone) IgG (bispecific, CD30 and PE38) (bispecific antibody)
light 1: not shown
heavy 1: not shown
light 2: MDIVLTQPPSASGTPGQRVTISCSGTSSDVGNSNLVSWYQQLPGTAPKLLIYGNSNRPSGVPDRFSGSKSGTSASLAISGLRSEDEADYYCCSYAGTGSPDVFGTGTKLTVLGQPKAAPSVTLFPPSSEELQANKATLVCLISDFYPGAVTVAWKADSSPVKAGVETTTPSKQSNNKYAASSYLSLTPEQWKSHRSYSCQVTHEGSTVEKTVAPAECS
heavy 2: MEVQLLETGGGLVQPGGSLRLSCAASGFTFDNYAINWVRQAPGKGLEWVSGISWNSGSIGYADSVKGRFTISRDNSKNTLYLQMNSLRAEDTAVYYCARGAPHYGGRGEFDFWGQGTLVTVSSASTKGPSVFPLAPSSKSTSGGTAALGCLVKDYFPEPVTVSWNSGALTSGVHTFPAVLQSSGLYSLSSVVTVPSSSLGTQTYICNVNHKPSNTKVDKRVEPKSCDKTHTCPPCPAPELLGRPSVFLFPPKPKDTLMISRTPEVTCVVVDVSHEDPEVKFNWYVDGVEVHNAKTKPREEQYNSTYRVVSVLTVLHQDWLNGKEYKCKVSNKALPAPIEKTISKAKGQPREPQVCTLPPSREEMTKNQVSLSCAVKGFYPSDIAVEWESNGQPENNYKTTPPVLDSDGSFFLVSKLTVDKSRWQQGNVFSCSVMHEALHNHYTQKSLSLSPGK
notes: also called T427-αPE (bispecific)
  binding result: no binding
